Assay results published in paper PMC4948116.

What was measured:
Assay in all cases: SPR
CD32A-131H (human) = CD32A-131H (human) (UniProt P12318)
CD32A-131R (human) = target: CD32A-131R (human)
[1] = target: Human recombinant CD16A-158F (human) (UniProt P08637)
[2] = target: Human recombinant CD16A-158V (human)
[3] = target: Human recombinant CD16B (human) (UniProt O75015)
[4] = target: Human recombinant CD32B (human) (UniProt P31994)
Chain of UniProt P31994 (P31994 43-217): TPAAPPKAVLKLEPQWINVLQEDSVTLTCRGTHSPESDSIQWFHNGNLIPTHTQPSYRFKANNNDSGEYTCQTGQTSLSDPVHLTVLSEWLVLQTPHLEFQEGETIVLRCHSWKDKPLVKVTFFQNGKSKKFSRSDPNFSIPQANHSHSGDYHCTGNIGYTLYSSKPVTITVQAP

Chain of UniProt P08637 (P08637 17-208): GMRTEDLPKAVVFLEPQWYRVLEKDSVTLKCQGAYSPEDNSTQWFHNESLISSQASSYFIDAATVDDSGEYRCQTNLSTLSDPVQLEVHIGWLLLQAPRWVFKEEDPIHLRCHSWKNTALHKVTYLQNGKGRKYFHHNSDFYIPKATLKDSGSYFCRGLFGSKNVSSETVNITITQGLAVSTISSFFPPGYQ
Chain of UniProt O75015 (O75015 17-200): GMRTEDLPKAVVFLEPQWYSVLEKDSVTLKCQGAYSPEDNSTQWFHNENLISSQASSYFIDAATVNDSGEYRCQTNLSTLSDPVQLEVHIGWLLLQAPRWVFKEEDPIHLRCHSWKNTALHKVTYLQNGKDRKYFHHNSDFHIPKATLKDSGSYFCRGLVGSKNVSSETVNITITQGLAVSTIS
Chain of UniProt P12318 (P12318 34-317): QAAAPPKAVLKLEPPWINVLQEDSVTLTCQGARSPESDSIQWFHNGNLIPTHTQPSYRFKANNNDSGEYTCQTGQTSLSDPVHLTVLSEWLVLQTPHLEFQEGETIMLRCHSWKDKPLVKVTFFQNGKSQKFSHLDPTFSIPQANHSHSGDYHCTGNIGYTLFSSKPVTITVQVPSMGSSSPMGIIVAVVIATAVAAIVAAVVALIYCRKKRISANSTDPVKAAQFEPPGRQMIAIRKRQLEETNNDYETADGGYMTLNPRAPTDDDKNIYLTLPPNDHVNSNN

Substance	Kd (CD32A-131H (human))	Kd (CD32A-131R (human))	Kd [1]	Kd [2]	ka1 (two-state reaction, first step) [2]	kd1 (two-state reaction, first step) [2]	kd2 (two-state reaction, second step) [2]	Kd [3]	Kd [4]	affinity relative to hu3F8-IgG1 on CD16A(158F) [1]
hu3F8-IgG1 (antibody)	541 nM	786 nM	2090 nM	726 nM	134000 M⁻¹ s⁻¹	0.212 s⁻¹	0.00897 s⁻¹	2030 nM	2400 nM	–
hu3F8-IgG1-DEL (antibody)	–	–	–	–	–	–	–	–	–	16 fold
